Laboratory results as given in paper PMC12397115 (European Journal of Nuclear Medicine and Molecular Imaging, 2025).
Several values for one entry are separate records, joined by “and”; a condition that tells them apart may be missing. Equal entries are not always repeated. Where two headings read alike, the source gives them in different places.

Legend:
[1] = in vivo
[2] = format: in vivo, adolescent patients; conditions: for Kidneys projected CAD, median (range) / Kidneys projected CAD, mean (SD): coefficient × 4 × 7.4
[3] = Blood pharmacokinetics after one administration, population approach; format: in vivo, adolescent and adult patients
[4] = Observed, adult GEP-NET N=47, historical data; ref NETTER-1 and Erasmus studies; cited from earlier work
[5] = Laboratory abnormalities during Cycle 1, safety set; set-up: species or system adolescent patients; conditions: in vivo
[6] = ref NETTER-1, cited from earlier work
[7] = Observed, adolescent GEP-NET and PPGL N=11
[8] = adolescents, 11 patients, population approach

Compound: C[C@@H](O)[C@H](NC(=O)[C@@H]1CSSC[C@H](NC(=O)[C@@H](Cc2ccccc2)NC(=O)CN2CCN(CC(=O)O)CCN(CC(=O)O)CCN(CC(=O)O)CC2)C(=O)N[C@@H](Cc2ccc(O)cc2)C(=O)N[C@H](Cc2c[nH]c3ccccc23)C(=O)N[C@@H](CCCCN)C(=O)N[C@@H]([C@@H](C)O)C(=O)N1)C(=O)O [177Lu-DOTATATE, [^177Lu]Lu-DOTA-TATE, metal not drawn]
- deaths by data cutoff [1]: no deaths
- patients with AEs that resulted in infusion interruptions [1]: 18%
- treatment-related nephrotoxicity [1]: no treatment-related nephrotoxicity was observed
- Kidneys absorbed dose coefficient, mean (SD) ([2]; All patients): 0.78 ± 0.28 Gy/GBq and 0.78 (0.28) Gy/GBq
- Kidneys absorbed dose coefficient, median (range) ([2]; All patients): 0.71 (0.46–1.3) Gy/GBq
- Red marrow (blood) absorbed dose coefficient, mean (SD) ([2]; All patients): 0.026 ± 0.0050 Gy/GBq and 0.026 (0.0050) Gy/GBq
- Red marrow (blood) absorbed dose coefficient, median (range) ([2]; All patients): 0.026 (0.019–0.035) Gy/GBq
- Red marrow (blood) projected CAD, mean (SD) ([2]; All patients): 0.78 ± 0.15 Gy and 0.78 (0.15) Gy
- Red marrow (blood) projected CAD, median (range) ([2]; All patients): 0.76 (0.55–1.0) Gy
- Spleen absorbed dose coefficient, mean (SD) ([2]; All patients): 0.74 (0.27) Gy/GBq
- Spleen absorbed dose coefficient, median (range) ([2]; All patients): 0.72 (0.28–1.1) Gy/GBq
- Spleen projected CAD, mean (SD) ([2]; All patients): 22 (8.1) Gy
- Spleen projected CAD, median (range) ([2]; All patients): 21 (8.3–34) Gy
- Total body absorbed dose coefficient, mean (SD) ([2]; All patients): 0.040 (0.0095) Gy/GBq
- Total body projected CAD, mean (SD) ([2]; All patients): 1.2 (0.28) Gy
- Total body projected CAD, median (range) ([2]; All patients): 1.2 (0.66–1.6) Gy
- Urinary bladder wall absorbed dose coefficient, mean (SD) ([2]; All patients): 0.55 (0.089) Gy/GBq
- Urinary bladder wall absorbed dose coefficient, median (range) ([2]; All patients): 0.52 (0.47–0.68) Gy/GBq
- Urinary bladder wall projected CAD, mean (SD) ([2]; All patients): 16 (2.6) Gy
- Urinary bladder wall projected CAD, median (range) ([2]; All patients): 15 (14–20) Gy
- Tumour absorbed dose coefficient, mean (SD) ([2]; All patients, 18 lesions): 2.0 (1.2) Gy/GBq
- Tumour absorbed dose coefficient, median (range) ([2]; All patients, 18 lesions): 1.9 (0.17–5.1) Gy/GBq
- Tumour projected CAD, mean (SD) ([2]; All patients, 18 lesions): 58 (37) Gy
- Tumour projected CAD, median (range) ([2]; All patients, 18 lesions): 55 (4.9–150) Gy
- Pituitary absorbed dose coefficient, mean (SD) ([2]; All patients, n=9): 1.1 (0.43) Gy/GBq
- Pituitary absorbed dose coefficient, median (range) ([2]; All patients, n=9): 1.0 (0.61–1.9) Gy/GBq
- Pituitary projected CAD, mean (SD) ([2]; All patients, n=9): 33 ± 13 Gy and 33 (13) Gy
- Pituitary projected CAD, median (range) ([2]; All patients, n=9): 30 (18–56) Gy
- Kidneys projected CAD, median (range) ([2]; All patients): 21 (14–40) Gy
- Kidneys absorbed dose coefficient, mean (SD) ([2]; GEP-NET): 0.71 (0.25) Gy/GBq
- Kidneys absorbed dose coefficient, median (range) ([2]; GEP-NET): 0.71 (0.46–0.96) Gy/GBq
- Red marrow (blood) absorbed dose coefficient, mean (SD) ([2]; GEP-NET): 0.024 (0.0035) Gy/GBq
- Red marrow (blood) absorbed dose coefficient, median (range) ([2]; GEP-NET): 0.024 (0.019–0.027) Gy/GBq
- Red marrow (blood) projected CAD, mean (SD) ([2]; GEP-NET): 0.70 (0.10) Gy
- Red marrow (blood) projected CAD, median (range) ([2]; GEP-NET): 0.72 (0.55–0.79) Gy
- Spleen absorbed dose coefficient, mean (SD) ([2]; GEP-NET): 0.63 (0.39) Gy/GBq
- Spleen absorbed dose coefficient, median (range) ([2]; GEP-NET): 0.55 (0.28–1.1) Gy/GBq
- Spleen projected CAD, mean (SD) ([2]; GEP-NET): 19 (12) Gy
- Spleen projected CAD, median (range) ([2]; GEP-NET): 16 (8.3–34) Gy
- Total body absorbed dose coefficient, mean (SD) ([2]; GEP-NET): 0.040 (0.013) Gy/GBq
- Total body absorbed dose coefficient, median (range) ([2]; GEP-NET): 0.040 (0.022–0.055) Gy/GBq
- Total body projected CAD, mean (SD) ([2]; GEP-NET): 1.2 (0.40) Gy
- Total body projected CAD, median (range) ([2]; GEP-NET): 1.2 (0.66–1.6) Gy
- Urinary bladder wall absorbed dose coefficient, mean (SD) ([2]; GEP-NET): 0.50 (0.034) Gy/GBq
- Urinary bladder wall absorbed dose coefficient, median (range) ([2]; GEP-NET): 0.49 (0.47–0.54) Gy/GBq
- Urinary bladder wall projected CAD, mean (SD) ([2]; GEP-NET): 15 (1.0) Gy
- Urinary bladder wall projected CAD, median (range) ([2]; GEP-NET): 14 (14–16) Gy
- Tumour absorbed dose coefficient, mean (SD) ([2]; GEP-NET, 8 lesions): 2.6 (1.2) Gy/GBq
- Tumour absorbed dose coefficient, median (range) ([2]; GEP-NET, 8 lesions): 2.3 (1.4–5.1) Gy/GBq
- Tumour projected CAD, mean (SD) ([2]; GEP-NET, 8 lesions): 76 ± 35 Gy and 76 (35) Gy
- Tumour projected CAD, median (range) ([2]; GEP-NET, 8 lesions): 69 (41–150) Gy
- Pituitary absorbed dose coefficient, mean (SD) ([2]; GEP-NET, n=3): 1.2 (0.43) Gy/GBq
- Pituitary absorbed dose coefficient, median (range) ([2]; GEP-NET, n=3): 1.1 (0.93–1.7) Gy/GBq
- Pituitary projected CAD, mean (SD) ([2]; GEP-NET, n=3): 37 (13) Gy
- Pituitary projected CAD, median (range) ([2]; GEP-NET, n=3): 32 (28–51) Gy
- Kidneys projected CAD, mean (SD) ([2]; GEP-NET): 21 (7.3) Gy
- Kidneys projected CAD, median (range) ([2]; GEP-NET): 21 (14–28) Gy
- Kidneys absorbed dose coefficient, mean (SD) ([2]; PPGL): 0.82 (0.32) Gy/GBq
- Kidneys absorbed dose coefficient, median (range) ([2]; PPGL): 0.71 (0.55–1.3) Gy/GBq
- Pituitary absorbed dose coefficient, mean (SD) ([2]; PPGL): 1.0 (0.45) Gy/GBq
- Pituitary absorbed dose coefficient, median (range) ([2]; PPGL): 0.93 (0.61–1.9) Gy/GBq
- Pituitary projected CAD, mean (SD) ([2]; PPGL): 31 (13) Gy
- Pituitary projected CAD, median (range) ([2]; PPGL): 28 (18–56) Gy
- Red marrow (blood) absorbed dose coefficient, mean (SD) ([2]; PPGL): 0.028 (0.0052) Gy/GBq
- Red marrow (blood) absorbed dose coefficient, median (range) ([2]; PPGL): 0.029 (0.022–0.035) Gy/GBq
- Red marrow (blood) projected CAD, mean (SD) ([2]; PPGL): 0.83 (0.16) Gy
- Red marrow (blood) projected CAD, median (range) ([2]; PPGL): 0.87 (0.64–1.0) Gy
- Spleen absorbed dose coefficient, mean (SD) ([2]; PPGL): 0.82 (0.17) Gy/GBq
- Spleen absorbed dose coefficient, median (range) ([2]; PPGL): 0.81 (0.64–1.1) Gy/GBq
- Spleen projected CAD, mean (SD) ([2]; PPGL): 24 (5.0) Gy
- Spleen projected CAD, median (range) ([2]; PPGL): 24 (19–31) Gy
- Total body absorbed dose coefficient, mean (SD) ([2]; PPGL): 0.041 (0.0073) Gy/GBq
- Total body projected CAD, mean (SD) ([2]; PPGL): 1.2 (0.21) Gy
- Total body projected CAD, median (range) ([2]; PPGL): 1.2 (0.97–1.5) Gy
- Urinary bladder wall absorbed dose coefficient, mean (SD) ([2]; PPGL): 0.59 (0.096) Gy/GBq
- Urinary bladder wall absorbed dose coefficient, median (range) ([2]; PPGL): 0.63 (0.47–0.68) Gy/GBq
- Urinary bladder wall projected CAD, mean (SD) ([2]; PPGL): 17 (2.8) Gy
- Urinary bladder wall projected CAD, median (range) ([2]; PPGL): 19 (14–20) Gy
- Tumour absorbed dose coefficient, mean (SD) ([2]; PPGL, 10 lesions): 1.5 (1.1) Gy/GBq
- Tumour absorbed dose coefficient, median (range) ([2]; PPGL, 10 lesions): 1.2 (0.17–3.3) Gy/GBq
- Tumour projected CAD, mean (SD) ([2]; PPGL, 10 lesions): 44 ± 34 Gy and 44 (34) Gy
- Tumour projected CAD, median (range) ([2]; PPGL, 10 lesions): 36 (4.9–98) Gy
- Kidneys projected CAD, mean (SD) ([2]; PPGL): 24 (9.3) Gy
- Kidneys projected CAD, median (range) ([2]; PPGL): 21 (16–40) Gy
- AUClast, geometric mean (geometric CV%) [3, 7]: 41.00 (24.15) ng.h/mL
- Cmax, geometric mean (geometric CV%) [3, 7]: 11.17 (33.04) ng/mL
- Tmax, median (range) [3, 7]: 0.58 (0.50–0.77) hours
- T½β, population value ([3]; adolescents): 36.9 h
- AUCinf, overall mean ± SD [3, 8]: 35.84 ± 4.49 ng·h/mL
- Cmax, overall mean ± SD [3, 8]: 10.33 ± 0.54 ng/mL
- clearance, overall mean ± SD [3, 8]: 5.98 ± 0.69 L/h
- Bone marrow Probability (%) >2 Gy [4]: 6%
- Kidneys Probability (%) >29 Gy [4]: 13%
- Grade ≥ 3 biochemistry abnormalities [5]: No
- AUClast, geometric mean (geometric CV%) ([6]; Observed, adult GEP-NET N=20): 30.08 (50.38) ng.h/mL
- Cmax, geometric mean (geometric CV%) ([6]; Observed, adult GEP-NET N=20): 8.98 (73.28) ng/mL
- Tmax, median (range) ([6]; Observed, adult GEP-NET N=20): 0.47 (0.25–1.17) hours
- T½β ([6]; adults with GEP-NET): 59.1 h
